For one protein, Km results are on record in PMC9038691, “A structural exposé of noncanonical molecular reactivity within the protein tyrosine phosphatase WPD loop” (Nature communications, 2022).

Experiment in all cases: malachite green Pi release
Assay type in all cases: biochemical, Arabidopsis thaliana
Holding throughout (settings): pH 7.2, 30 °C, 100 mM KCl, 0.8 mM MgCl2

Substrate in series [1]: O=P(O)(O)O[C@@H]1[C@@H](OP(=O)(O)OP(=O)(O)O)[C@H](OP(=O)(O)O)[C@@H](OP(=O)(O)O)[C@@H](O)[C@H]1OP(=O)(O)O
Substrate in series [2]: O=P(O)(O)O[C@@H]1[C@@H](OP(=O)(O)O)[C@H](OP(=O)(O)OP(=O)(O)O)[C@@H](OP(=O)(O)O)[C@H](OP(=O)(O)OP(=O)(O)O)[C@@H]1OP(=O)(O)O
Substrate in series [3]: O=P(O)(O)O[C@H]1[C@@H](OP(=O)(O)O)[C@H](OP(=O)(O)O)[C@@H](OP(=O)(O)OP(=O)(O)O)[C@H](OP(=O)(O)O)[C@H]1OP(=O)(O)O

B1: AtPFA-DSP1 (full-length) (Arabidopsis thaliana) (protein)
chain: MKLVEKTTTTEQDNGEDFCRTIIEVSEVNRNVFQAPGGEADPFRVVSGEELHLIPPLNFSMVDNGIFRSGFPDSANFSFLQTLGLRSIIYLCPEPYPESNLQFLKSNGIRLFQFGIEGNKEPFVNIPDHKIRMALKVLLDEKNHPVLIHCKRGKHRTGCLVGCLRKLQKWCLTSIFDEYQRFAAAKARVSDQRFMEIFDVSSFSHIPMSFSCSIR
notes: full-length (codon-optimized cDNA, Genscript); pDest-566, N-terminal 6xHis-MBP tag cut with TEV protease; E. coli
In the case of B1, the Km (commonly the concentration of substrate that gives half-maximal velocity) was 78 µM in series [1], 44 µM in series [2] and 60 µM in series [3].
